From patent publication US20210147536A1 (MAB VENTURE BIOPHARM, published 2021) come the findings set out here.

As usually defined, the Kd is the constant that tells how readily two partners part at equilibrium. As usually defined, the koff is the rate constant with which the complex falls apart. As usually defined, the kon is a measure of how fast the partners come together. A word on the EC50: it is the concentration that produces a half-maximal response. The IC50 is the point on the concentration scale where inhibition reaches its midpoint.

The target of test [1] is T1, human LAG-3-6*His tag recombinant fusion protein (human, UniProt P18627 23-450, biotin-labelled in panning and in Example 9).
T1 construct: Bought protein; also called hLAG-3-6*his tag recombinant protein; human LAG-3-his tag recombinant fusion protein
T1 sequence: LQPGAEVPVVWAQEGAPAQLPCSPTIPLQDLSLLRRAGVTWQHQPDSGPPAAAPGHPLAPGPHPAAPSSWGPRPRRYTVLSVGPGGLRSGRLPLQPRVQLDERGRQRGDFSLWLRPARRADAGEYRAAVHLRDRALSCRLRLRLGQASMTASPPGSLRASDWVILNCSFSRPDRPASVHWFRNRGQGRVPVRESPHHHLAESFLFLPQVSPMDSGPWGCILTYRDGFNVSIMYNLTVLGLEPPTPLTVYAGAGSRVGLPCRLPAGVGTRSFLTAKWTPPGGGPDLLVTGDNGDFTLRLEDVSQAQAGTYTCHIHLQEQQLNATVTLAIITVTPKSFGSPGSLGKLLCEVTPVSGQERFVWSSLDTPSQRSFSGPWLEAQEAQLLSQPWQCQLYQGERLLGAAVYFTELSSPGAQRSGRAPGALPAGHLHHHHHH
Description: BLI (Octet Red96), biotinylated hLAG-3-6*his on SA biosensor, antibody 100 µg/mL in solution, 1:2 binding model. (In general: Biolayer interferometry detects binding as a change in optical thickness at a sensor tip.)

Test [2] deals with T2, human LAG-3 on the cell surface (human, UniProt P18627 23-525).
T2 construct: whole, on cells; also called cells expressing the human LAG-3
T2 sequence (looked up): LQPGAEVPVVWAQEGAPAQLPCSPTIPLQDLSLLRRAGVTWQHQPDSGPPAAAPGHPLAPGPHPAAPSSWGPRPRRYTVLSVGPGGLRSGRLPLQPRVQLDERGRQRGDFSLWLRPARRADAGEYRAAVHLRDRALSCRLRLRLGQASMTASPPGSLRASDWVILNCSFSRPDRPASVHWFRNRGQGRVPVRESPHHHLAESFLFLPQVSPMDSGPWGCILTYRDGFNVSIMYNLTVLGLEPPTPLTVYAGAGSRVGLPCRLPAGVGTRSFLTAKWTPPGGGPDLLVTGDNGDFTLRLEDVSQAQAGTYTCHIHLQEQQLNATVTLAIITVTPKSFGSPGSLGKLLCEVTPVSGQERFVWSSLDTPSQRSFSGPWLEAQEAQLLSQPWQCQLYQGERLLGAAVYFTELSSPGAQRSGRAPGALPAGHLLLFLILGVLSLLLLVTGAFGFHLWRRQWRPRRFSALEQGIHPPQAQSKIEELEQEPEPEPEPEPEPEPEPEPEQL
Description: flow cytometry on cells expressing the human LAG-3, PE anti-human IgG; N = 4. In general terms: In flow cytometry, cells or beads pass a laser one at a time.

The target in test [3] is T3, recombinant Macaca fascicularis LAG-3-6*His tag fusion protein (Macaca fascicularis).
T3 construct: Bought protein; also called Macaca fascicularis LAG-3 antigen
Put plainly: ELISA, antibody coated at 1 µg/ml, Macaca fascicularis LAG-3-6*His titrated, anti-His HRP. (In general: In an ELISA, binding on a coated surface is turned into a signal by an enzyme label.)

For test [4], the target named is T1, human LAG-3-6*His tag recombinant …. Put plainly: SPR BIAcore T200, antibody on CM5 chip, human LAG-3-6*His 0.352 to 45 nM as analyte.
For test [5], the target named is T4, human LAG-3-mFc recombinant fusion protein (human).
T4 construct: also called hLAG-3-mFc
T4 chain: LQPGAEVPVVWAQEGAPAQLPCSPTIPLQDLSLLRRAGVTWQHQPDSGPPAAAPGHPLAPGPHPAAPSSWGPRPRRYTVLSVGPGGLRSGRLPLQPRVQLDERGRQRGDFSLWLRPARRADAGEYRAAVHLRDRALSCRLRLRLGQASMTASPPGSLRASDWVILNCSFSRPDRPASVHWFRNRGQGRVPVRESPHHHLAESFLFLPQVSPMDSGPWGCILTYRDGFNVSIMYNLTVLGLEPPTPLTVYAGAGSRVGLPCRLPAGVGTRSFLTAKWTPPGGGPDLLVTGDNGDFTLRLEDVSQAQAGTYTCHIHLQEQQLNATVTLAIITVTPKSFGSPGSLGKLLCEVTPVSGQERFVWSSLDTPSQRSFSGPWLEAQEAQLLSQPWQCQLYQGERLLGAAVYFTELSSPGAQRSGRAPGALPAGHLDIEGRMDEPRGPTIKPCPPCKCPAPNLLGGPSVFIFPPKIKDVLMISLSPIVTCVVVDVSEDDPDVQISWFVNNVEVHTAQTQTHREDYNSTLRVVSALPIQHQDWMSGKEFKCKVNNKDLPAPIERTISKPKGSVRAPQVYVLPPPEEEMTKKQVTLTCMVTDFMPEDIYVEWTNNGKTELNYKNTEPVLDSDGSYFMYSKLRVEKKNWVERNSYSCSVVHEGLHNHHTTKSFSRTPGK
Description: flow cytometry, blocking of hLAG-3-mFc (10 µg/ml) binding to MHC class II on Daudi cells.

In test [6] the target is T1, human LAG-3-6*His tag recombinant …. Put plainly: ELISA, antibody coated at 1 µg/ml, human LAG-3-6*His titrated, anti-His HRP; range of three experiments.
Test [7] addresses T2, human LAG-3 on the cell surface. Description: cell-based or functional assay.
Test [8] addresses T1, human LAG-3-6*His tag recombinant …. Description: BLI Octet Red96, MV705-3 on AHC sensor, human LAG-3-6*His at 1000 nM, 1:1 model.
The target is the same in test [9]. Put plainly: BLI (Octet Red96), biotinylated hLAG-3-6*his on SA biosensor, antibody 100 µg/mL in solution, 1:2 binding model. This is another data set of the same source.
The target is the same in test [10]. Described as above. The source holds these as a separate data set.

B1: anti-human LAG-3 full human monoclonal antibody MV705-3 (antibody, human IgG4, V domains shown)
VH: EVQLLESGAEVKKPGASVKVSCKASGYTFTSYGISWVRQAPGQGLEWMGWISAYNGNTNYAQKLQGRVTMTTDTSTSTAYMELRSLRSDDTAVYYCARDGWWELLRPDDAFDIWGQGTTVTVSS
VL: QLVLTQSPSVSVSPGQTASITCSGDKLGDKYAYWYQQKPGQAPVLVIYYDSDRPSGIPERFSGSNSGNTATLTISRVEAGDEADYYCQVWDSSSDQVVFGGGTQLTVLG
notes: Full IgG4 with lambda light chain; also called MV705-3(DD + DD)
As to B1, the Kd in [1] came out at 4.83 nM; in test [4] it was 0.00851 nM; in test [8], 1.79 nM; in test [9], 3.04 nM; in test [10], 4.83 nM. The koff in [1] is 0.000442 s⁻¹; in [4] it was 9.18e-07 s⁻¹; in [8] it was 0.000106 s⁻¹; in test [9], 0.000373 s⁻¹; in test [10] it was 0.000442 s⁻¹. For the same molecule, the kon came out at 91600 M⁻¹ s⁻¹ in test [1]; 108000 M⁻¹ s⁻¹ in test [4]; 59300 M⁻¹ s⁻¹ in [8]; 122000 M⁻¹ s⁻¹ in [9]; 91600 M⁻¹ s⁻¹ in [10]. Also, the results for the EC50 in test [2], in test [3] and in test [6] were 0.0023 µg/mL, 0.11 µg/mL and 0.04 to 0.1 µg/mL, respectively. The IC50 in [5] came out at 2.8 µg/mL. For the same molecule, the “EC50 of NFAT reporter gene induction (bio-glo luciferase), LAG3/NFAT Reporter-Jurkat + Raji cells + superantigen” value in [7] came out at 0.04 µg/mL.
